According to article PMC5961032:

Legend:
PP1α (7–330) = PP1α (7–330) (UniProt P62136)
[1] = target: native catalytic subunit of PP1 from rabbit skeletal muscle (PP1^N) (rabbit) (UniProt P62139)
Chain of UniProt P62139 (P62139 whole entry): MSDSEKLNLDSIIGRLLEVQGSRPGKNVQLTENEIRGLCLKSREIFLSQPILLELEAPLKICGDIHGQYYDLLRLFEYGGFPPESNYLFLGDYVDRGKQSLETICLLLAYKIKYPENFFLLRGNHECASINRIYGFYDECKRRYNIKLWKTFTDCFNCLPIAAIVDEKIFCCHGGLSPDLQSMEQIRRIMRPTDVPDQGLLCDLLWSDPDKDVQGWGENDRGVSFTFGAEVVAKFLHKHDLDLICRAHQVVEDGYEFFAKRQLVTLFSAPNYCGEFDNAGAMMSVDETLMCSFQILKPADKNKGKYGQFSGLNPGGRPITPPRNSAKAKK

Chain of UniProt P62136 (P62136 7-330): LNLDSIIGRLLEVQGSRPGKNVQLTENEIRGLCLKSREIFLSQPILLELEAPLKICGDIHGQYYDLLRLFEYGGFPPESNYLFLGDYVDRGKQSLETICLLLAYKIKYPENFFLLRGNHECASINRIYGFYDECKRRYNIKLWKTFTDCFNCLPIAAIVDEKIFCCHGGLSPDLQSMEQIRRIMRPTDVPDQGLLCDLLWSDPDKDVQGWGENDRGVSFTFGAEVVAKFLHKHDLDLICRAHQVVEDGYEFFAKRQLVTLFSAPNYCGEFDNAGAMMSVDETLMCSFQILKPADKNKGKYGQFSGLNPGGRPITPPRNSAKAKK
Chain of MBP-PPP1R15A^325–636 (O75807 325-636): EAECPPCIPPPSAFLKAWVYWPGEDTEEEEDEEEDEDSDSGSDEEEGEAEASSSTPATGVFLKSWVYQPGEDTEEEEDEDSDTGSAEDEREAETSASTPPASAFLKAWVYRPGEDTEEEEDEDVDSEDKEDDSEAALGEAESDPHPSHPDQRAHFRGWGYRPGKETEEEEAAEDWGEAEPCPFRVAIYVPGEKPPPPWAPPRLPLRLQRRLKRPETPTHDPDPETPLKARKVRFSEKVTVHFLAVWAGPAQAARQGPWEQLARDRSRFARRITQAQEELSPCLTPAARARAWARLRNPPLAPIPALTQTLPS
Chain of PPP1R15A^325–636-MBP (O75807 325-636): as above

## MBP-PPP1R15A^325–636 (from UniProt O75807 325-636) (domain or fragment)
PP1α (7–330)
  EC50 of the stimulation of eIF2α^P (2 μM) dephosphorylation by PP1α (24 nM) with G-actin (400 nM), MBP-PPP1R15A^325–636 0–100 nM, 20 min at 30 °C: 6 nM

## PPP1R15A^325–636-MBP (from UniProt O75807 325-636) (domain or fragment)
[1]
  EC50 of the stimulation of eIF2α^P (2 μM) dephosphorylation by PP1^N (20 nM) with G-actin (400 nM), PPP1R15A^325–636-MBP 0–100 nM, 30 min at 30 °C: 58 nM
